Reference: patent US20080182978A1, “ANTI-NGF ANTIBODIES AND METHODS USING SAME” (RINAT NEUROSCIENCE CORP, priority 2002, published 2008)

Assay: Dose response of E3 on body weight in arthritic rats (Example 9)
Assay type: in vivo, rat
Experimental: The ability of E3 to produce reduction in pain in arthritic rats was further investigated by examining the dose response relationship between E3 administration and pain reduction. Rats were treated with adjuvant to induce arthritis as described above. Ten rats not injected with adjuvant were used as non-arthritic controls. Fourteen days after adjuvant injection, animals were qualified into the study based on the criteria stated above, randomized into eight groups of ten rats and tested for the intensity of their vocalization response. They were then dosed on day 14 with saline, or 0.003 mg/kg, 0.01 mg/kg, 0.03 mg/kg, 0.1 mg/kg, 0.3 mg/kg, 1 mg/kg or 5 mg/kg of E3 antibody as described above. Animals were tested for their vocalization response on days 16, 18, 20, and 24. Animals were redosed with saline or the same dose of E3 on day 18 after the vocalization testing. Animals were also weighed each day, starting at day 14. Thus, animals were dosed twice with a given dose of antibody or saline on days 14 and 18, and assessed for pain five times, on days 14, 16, 18, 20 and 24. Data are shown in Tables 20-22 and in FIGS. 20-22.
The effect of treating animals with various doses of anti-NGF antibody E3 on body weight was statistically analyzed by using two-way ANOVA to compare the results obtained pairwise between arthritic animals treated with vehicle with those treated with a given dose of antibody E3. […] At all higher dose of E3, the difference between treated and untreated arthritic animals was significant (p= or <0.0001). […]

[1] = E3 0.003 mg/kg on days 14+18, day 14
[2] = E3 0.003 mg/kg on days 14+18, day 15
[3] = E3 0.003 mg/kg on days 14+18, day 16
[4] = E3 0.003 mg/kg on days 14+18, day 17
[5] = E3 0.003 mg/kg on days 14+18, day 18
[6] = E3 0.003 mg/kg on days 14+18, day 20
[7] = E3 0.003 mg/kg on days 14+18, day 21
[8] = E3 0.003 mg/kg on days 14+18, day 23
[9] = E3 0.003 mg/kg on days 14+18, day 24
[10] = E3 0.01 mg/kg on days 14+18, day 14
[11] = E3 0.01 mg/kg on days 14+18, day 15
[12] = E3 0.01 mg/kg on days 14+18, day 16
[13] = E3 0.01 mg/kg on days 14+18, day 17
[14] = E3 0.01 mg/kg on days 14+18, day 18
[15] = E3 0.01 mg/kg on days 14+18, day 20
[16] = E3 0.01 mg/kg on days 14+18, day 21
[17] = E3 0.01 mg/kg on days 14+18, day 23
[18] = E3 0.01 mg/kg on days 14+18, day 24
[19] = E3 0.03 mg/kg on days 14+18, day 14
[20] = E3 0.03 mg/kg on days 14+18, day 15
[21] = E3 0.03 mg/kg on days 14+18, day 16
[22] = E3 0.03 mg/kg on days 14+18, day 17
[23] = E3 0.03 mg/kg on days 14+18, day 18
[24] = E3 0.03 mg/kg on days 14+18, day 20
[25] = E3 0.03 mg/kg on days 14+18, day 21
[26] = E3 0.03 mg/kg on days 14+18, day 23
[27] = E3 0.03 mg/kg on days 14+18, day 24
[28] = E3 0.1 mg/kg on days 14+18, day 14
[29] = E3 0.1 mg/kg on days 14+18, day 15

B1: E3: humanized, affinity matured anti-NGF antagonist antibody; variable regions SEQ ID NO:1 and 2; human IgG2a (A330P331 to S330S331), kappa (antibody, V domains shown)
VH: QVQLQESGPGLVKPSETLSLTCTVSGFSLIGYDLNWIRQPPGKGLEWIGIIWGDGTTDYNSAVKSRVTISKDTSKNQFSLKLSSVTAADTAVYYCARGGYWYATSYYFDYWGQGTLVTVS
VL: DIQMTQSPSSLSASVGDRVTITCRASQSISNNLNWYQQKPGKAPKLLIYYTSRFHSGVPSRFSGSGSGTDFTFTISSLQPEDIATYYCQQEHTLPYTFGQGTKLEIKRT
modifications: human IgG2a constant (A330S/P331S) and kappa constant missing
- Body weight normalized to day 0 (E3 0.003 mg/kg on days 14+18, day 0): 100.00
- Body weight normalized to day 0 (E3 0.003 mg/kg on days 14+18, day 1): 98.37
- Body weight normalized to day 0 (E3 0.003 mg/kg on days 14+18, day 2): 102.47
- Body weight normalized to day 0 (E3 0.003 mg/kg on days 14+18, day 3): 106.54
- Body weight normalized to day 0 (E3 0.003 mg/kg on days 14+18, day 4): 110.09
- Body weight normalized to day 0 (E3 0.003 mg/kg on days 14+18, day 7): 121.29
- Body weight normalized to day 0 (E3 0.003 mg/kg on days 14+18, day 8): 124.44
- Body weight normalized to day 0 (E3 0.003 mg/kg on days 14+18, day 9): 125.91
- Body weight normalized to day 0 (E3 0.003 mg/kg on days 14+18, day 10): 123.30
- Body weight normalized to day 0 (E3 0.003 mg/kg on days 14+18, day 11): 119.55
- Body weight normalized to day 0 [1]: 111.50
- Body weight normalized to day 14 [1]: 100.00
- Body weight normalized to day 0 [2]: 110.63
- Body weight normalized to day 14 [2]: 99.20
- Body weight normalized to day 0 [3]: 111.08
- Body weight normalized to day 14 [3]: 99.58
- Body weight normalized to day 0 [4]: 112.06
- Body weight normalized to day 14 [4]: 100.46
- Body weight normalized to day 0 [5]: 112.60
- Body weight normalized to day 14 [5]: 100.90
- Body weight normalized to day 0 [6]: 114.17
- Body weight normalized to day 14 [6]: 102.26
- Body weight normalized to day 0 [7]: 115.25
- Body weight normalized to day 14 [7]: 103.16
- Body weight normalized to day 0 [8]: 118.48
- Body weight normalized to day 14 [8]: 106.09
- Body weight normalized to day 0 [9]: 118.58
- Body weight normalized to day 14 [9]: 106.16
- Body weight normalized to day 0 (E3 0.01 mg/kg on days 14+18, day 0): 100.00
- Body weight normalized to day 0 (E3 0.01 mg/kg on days 14+18, day 1): 98.86
- Body weight normalized to day 0 (E3 0.01 mg/kg on days 14+18, day 2): 102.61
- Body weight normalized to day 0 (E3 0.01 mg/kg on days 14+18, day 3): 106.29
- Body weight normalized to day 0 (E3 0.01 mg/kg on days 14+18, day 4): 110.61
- Body weight normalized to day 0 (E3 0.01 mg/kg on days 14+18, day 7): 121.59
- Body weight normalized to day 0 (E3 0.01 mg/kg on days 14+18, day 8): 124.47
- Body weight normalized to day 0 (E3 0.01 mg/kg on days 14+18, day 9): 125.82
- Body weight normalized to day 0 (E3 0.01 mg/kg on days 14+18, day 10): 123.87
- Body weight normalized to day 0 (E3 0.01 mg/kg on days 14+18, day 11): 121.20
- Body weight normalized to day 0 [10]: 111.80
- Body weight normalized to day 14 [10]: 100.00
- Body weight normalized to day 0 [11]: 110.85
- Body weight normalized to day 14 [11]: 99.18
- Body weight normalized to day 0 [12]: 110.98
- Body weight normalized to day 14 [12]: 99.33
- Body weight normalized to day 0 [13]: 111.42
- Body weight normalized to day 14 [13]: 99.69
- Body weight normalized to day 0 [14]: 112.54
- Body weight normalized to day 14 [14]: 100.69
- Body weight normalized to day 0 [15]: 114.82
- Body weight normalized to day 14 [15]: 102.70
- Body weight normalized to day 0 [16]: 114.76
- Body weight normalized to day 14 [16]: 102.63
- Body weight normalized to day 0 [17]: 116.76
- Body weight normalized to day 14 [17]: 104.41
- Body weight normalized to day 0 [18]: 116.56
- Body weight normalized to day 14 [18]: 104.23
- Body weight normalized to day 0 (E3 0.03 mg/kg on days 14+18, day 0): 100.00
- Body weight normalized to day 0 (E3 0.03 mg/kg on days 14+18, day 1): 98.67
- Body weight normalized to day 0 (E3 0.03 mg/kg on days 14+18, day 2): 102.05
- Body weight normalized to day 0 (E3 0.03 mg/kg on days 14+18, day 3): 105.31
- Body weight normalized to day 0 (E3 0.03 mg/kg on days 14+18, day 4): 109.24
- Body weight normalized to day 0 (E3 0.03 mg/kg on days 14+18, day 7): 117.15
- Body weight normalized to day 0 (E3 0.03 mg/kg on days 14+18, day 8): 118.52
- Body weight normalized to day 0 (E3 0.03 mg/kg on days 14+18, day 9): 118.60
- Body weight normalized to day 0 (E3 0.03 mg/kg on days 14+18, day 10): 115.26
- Body weight normalized to day 0 (E3 0.03 mg/kg on days 14+18, day 11): 112.94
- Body weight normalized to day 0 [19]: 108.37
- Body weight normalized to day 14 [19]: 100.00
- Body weight normalized to day 0 [20]: 108.68
- Body weight normalized to day 14 [20]: 100.34
- Body weight normalized to day 0 [21]: 109.21
- Body weight normalized to day 14 [21]: 100.89
- Body weight normalized to day 0 [22]: 110.16
- Body weight normalized to day 14 [22]: 101.80
- Body weight normalized to day 0 [23]: 111.14
- Body weight normalized to day 14 [23]: 102.70
- Body weight normalized to day 0 [24]: 113.17
- Body weight normalized to day 14 [24]: 104.51
- Body weight normalized to day 0 [25]: 113.80
- Body weight normalized to day 14 [25]: 105.08
- Body weight normalized to day 0 [26]: 114.93
- Body weight normalized to day 14 [26]: 106.14
- Body weight normalized to day 0 [27]: 114.99
- Body weight normalized to day 14 [27]: 106.23
- Body weight normalized to day 0 (E3 0.1 mg/kg on days 14+18, day 0): 100.00
- Body weight normalized to day 0 (E3 0.1 mg/kg on days 14+18, day 1): 99.31
- Body weight normalized to day 0 (E3 0.1 mg/kg on days 14+18, day 2): 102.87
- Body weight normalized to day 0 (E3 0.1 mg/kg on days 14+18, day 3): 106.26
- Body weight normalized to day 0 (E3 0.1 mg/kg on days 14+18, day 4): 110.20
- Body weight normalized to day 0 (E3 0.1 mg/kg on days 14+18, day 7): 120.50
- Body weight normalized to day 0 (E3 0.1 mg/kg on days 14+18, day 8): 123.48
- Body weight normalized to day 0 (E3 0.1 mg/kg on days 14+18, day 9): 125.46
- Body weight normalized to day 0 (E3 0.1 mg/kg on days 14+18, day 10): 123.95
- Body weight normalized to day 0 (E3 0.1 mg/kg on days 14+18, day 11): 121.98
- Body weight normalized to day 0 [28]: 113.90
- Body weight normalized to day 14 [28]: 100.00
- Body weight normalized to day 0 [29]: 113.66
- Body weight normalized to day 14 [29]: 99.83
- Body weight normalized to day 0 (E3 0.1 mg/kg on days 14+18, day 16): 115.06
